Experimental data as given in patent CN117624356A (VAZYME MEDICAL CO LTD; HUNAN NOVAZYME MEDICAL TECH CO LTD, dated 2024).

T1: NfL-His重组蛋白 (神经丝轻链蛋白, Neurofilament light chain) (Homo sapiens (Human), UniProt P07196 1-543)
T1 construct: Recombinant, expressed in 293F cells, C-terminal His tag; used as immunogen, sorting antigen and screening antigen; also called NfL-His蛋白
T1 sequence: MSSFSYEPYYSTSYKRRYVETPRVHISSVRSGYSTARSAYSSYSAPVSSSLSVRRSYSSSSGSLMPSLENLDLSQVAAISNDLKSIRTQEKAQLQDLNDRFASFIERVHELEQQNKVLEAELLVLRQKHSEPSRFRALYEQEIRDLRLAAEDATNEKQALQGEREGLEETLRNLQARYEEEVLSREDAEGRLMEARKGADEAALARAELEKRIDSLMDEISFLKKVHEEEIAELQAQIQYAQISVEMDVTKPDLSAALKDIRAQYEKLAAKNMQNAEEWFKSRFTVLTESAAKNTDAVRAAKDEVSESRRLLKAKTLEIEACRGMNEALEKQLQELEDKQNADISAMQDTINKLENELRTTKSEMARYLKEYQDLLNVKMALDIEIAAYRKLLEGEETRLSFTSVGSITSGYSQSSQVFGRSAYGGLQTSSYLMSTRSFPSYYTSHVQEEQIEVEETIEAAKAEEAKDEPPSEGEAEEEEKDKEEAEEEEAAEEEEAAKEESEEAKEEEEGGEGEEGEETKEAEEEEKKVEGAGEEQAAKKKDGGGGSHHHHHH

B1: Rabbit anti-NfL mAb (antibody, V domains shown)
VH: QSVEESGGRLVTPGTPLTLTCTASGIDLSNYAMNWVHQAPGKGLEWIAIIYASGSTYYTTWAKGRFTISKTSSTTVDLKITSPTTEDTATYFCARALSMTNVYTFNIWGPGTLVTVSS
VL: DVVMTQTPASVSEPVGGTVTIKCQASQNIYNNLAWYQQKPGQPPKLLIYKASTLASGVSSRFKGSGSGTEFTLTISDLECADAATYYCQCTYGSSYVAFGGGTEVVVK
notes: Rabbit monoclonal antibody developed earlier by the applicant; Used as the fixed capture antibody (coupled to magnetic beads in the chemiluminescence assay); also called 包被抗体; 配对抗体
B2: Anti-NfL-rRmab-1 (antibody, V domains shown)
VH: QSVEESGGRLVTPGTPLTLTCTASGFSLSIHDMSWVRQAPGKGLEWIGLISSNNNTYYASWAKGRFTISKTSTTVDLKITSPTTEDTATYFCARGGFSTDLWGPGTPVTVSS
VL: DVVMTQTPASVSEPVGGTVTIKCQASQSIYTYLSWYQQKPGQPPKLLIYGASNLASGVSSRFKGSGSGTDYTLTISGVQCDDAATYYCQCTYFSSSYVGGFGGGTEVVVK
notes: Labelled with acridinium ester as the detection antibody in the chemiluminescence assay; also called NfL特异性抗体; 优选抗体

Columns and labels:
[1] = target: T1, NfL-His重组蛋白 (神经丝轻链蛋白, Neurofilament …); assay: sandwich ELISA, fixed antibody of the pair
[2] = target: T1, NfL-His重组蛋白 (神经丝轻链蛋白, Neurofilament …); assay: sandwich chemiluminescence, NfL at 10000pg/mL, Rabbit anti-NfL mAb on beads as capture, acridinium ester labelled antibody as detection

Row | Binder | binding result [1] | binding result [2]
1 | B1 | binds | –
2 | B2 | – | binds
